Holding throughout (test): EMSA
Conditions in all cases: 40 mM Tris pH 7.6, 85 mM KCl, 19% glycerol, 4 mg/mL BSA, 0.5 mg/mL calf thymus DNA, 30 min at 30 C; 6% native PAGE in 0.5x TBE

The target of data set [1] is T1, TorI-R45Q R45Q (Escherichia coli K-12 MG1655? (KplE1 prophage)) (UniProt Q2EES9).
T1 sequence: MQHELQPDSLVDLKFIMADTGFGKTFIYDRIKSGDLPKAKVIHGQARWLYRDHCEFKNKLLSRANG

Data set [2] addresses T2, TorI-Y28F Y28F (Escherichia coli K-12 MG1655? (KplE1 prophage)) (UniProt Q2EES9).
T2 sequence: T1 sequence with Y28F, Q45R

Data set [3] has as its target T3, TorI-M17V M17V (Escherichia coli K-12 MG1655? (KplE1 prophage)) (UniProt Q2EES9).
T3 sequence: T1 sequence with M17V, Q45R

Data set [4] concerns the target T4, TorI-F15L F15L (Escherichia coli K-12 MG1655? (KplE1 prophage)) (UniProt Q2EES9).
T4 sequence: T1 sequence with F15L, Q45R

Data set [5] has as its target T5, TorI-F22I F22I (Escherichia coli K-12 MG1655? (KplE1 prophage)) (UniProt Q2EES9).
T5 sequence: T1 sequence with F22I, Q45R

Data set [6] concerns the target T6, TorI-L61S L61S (Escherichia coli K-12 MG1655? (KplE1 prophage)) (UniProt Q2EES9).
T6 sequence: T1 sequence with Q45R, L61S

Data set [7] has as its target T7, TorI-A46V A46V (Escherichia coli K-12 MG1655? (KplE1 prophage)) (UniProt Q2EES9).
T7 sequence: T1 sequence with Q45R, A46V

Residue numbers refer to the chain shown, from its start.

Consider “CATCGAGAAGGCGGTATGGTTTTTCTTTCGGCTTTGCTGCTTCAATCTGCTTAACGGTGAGCATGGGTAAAAATCCGGTGGGTAAAATTATTTTATCCACTTTTTACCCGTCATGGAGTGCGGCTGTCAACGATCTGAAGCGAACCATGACGAACTGTAAATCTACGGAATGCTTGATATTCAGGGGATTTTGCGGACTGGTACGGATGGGAGCGAACTGATAAATGGTGTCCCCTGCAGGAATCGAACCTGCAATTAGCCCTTAGGAGGGGCTCGTTATATCCATT (double strand) [KplE1 attL]”, for which the binding result is given as “binds more weakly” in data set [1]; “binds more weakly” in data set [2]; “binds more weakly” in data set [3]; “binds more weakly” in data set [4]; “no binding” in data set [5]; “binds” in data set [6]. In addition, in data set [7], the binding entry is reported as “binds more weakly”.

Values taken from publication PMC3509656.
